Experimental data as given in PMC7917804.

Biological target: poly(A)-binding protein (PABP), P11940
Test: co-immunoprecipitation with anti-FLAG antibody, Western blot quantified with ImageJ
Conditions: chain shown with the change, HeLa cells, parent: est. 1.0, read off a plot

poly(A)-binding protein (PABP), P11940, sequence (P11940 whole entry): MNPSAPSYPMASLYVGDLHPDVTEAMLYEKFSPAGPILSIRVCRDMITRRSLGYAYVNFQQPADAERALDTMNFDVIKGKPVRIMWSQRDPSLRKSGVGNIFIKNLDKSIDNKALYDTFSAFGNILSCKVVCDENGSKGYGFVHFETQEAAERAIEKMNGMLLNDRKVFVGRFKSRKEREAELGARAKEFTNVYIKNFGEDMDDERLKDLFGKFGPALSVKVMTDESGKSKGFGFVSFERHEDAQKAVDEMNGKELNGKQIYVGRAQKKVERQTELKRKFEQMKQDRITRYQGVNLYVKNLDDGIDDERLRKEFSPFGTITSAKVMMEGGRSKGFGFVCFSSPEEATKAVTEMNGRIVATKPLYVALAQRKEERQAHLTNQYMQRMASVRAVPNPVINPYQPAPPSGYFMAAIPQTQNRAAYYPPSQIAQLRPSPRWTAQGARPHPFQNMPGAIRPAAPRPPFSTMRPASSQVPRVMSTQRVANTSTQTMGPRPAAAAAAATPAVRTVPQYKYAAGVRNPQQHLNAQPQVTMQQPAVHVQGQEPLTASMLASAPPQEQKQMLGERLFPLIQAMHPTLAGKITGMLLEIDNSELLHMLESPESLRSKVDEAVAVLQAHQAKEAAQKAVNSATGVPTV

response (two independent experiments) | response (three independent experiments) | Binder
1.7 | – | FLAG-HA-SBP (FHS)-tagged full-length TNRC6A, wild type, Q8NDV7-2 S1332A; S1346A (protein) MDADSASSSESERNITIMASGNTGGEKDGLRNSTGLGSQNKFVVGSSSNNVGHGSSTGPWGFSHGAIISTCQVSVDAPESKSESSNNRMNAWGTVSSSSNGGLNPSTLNSASNHGAWPVLENNGLALKGPVGSGSSGINIQCSTIGQMPNNQSINSKVSGGSTHGTWGSLQETCESEVSGTQKVSFSGQPQNITTEMTGPNNTTNFMTSSLPNSGSVQNNELPSSNTGAWRVSTMNHPQMQAPSGMNGTSLSHLSNGESKSGGSYGTTWGAYGSNYSGDKCSGPNGQANGDTVNATLMQPGVNGPMGTNFQVNTNKGGGVWESGAANSQSTSWGSGNGANSGGSRRGWGTPAQNTGTNLPSVEWNKLPSNQHSNDSANGNGKTFTNGWKSTEEEDQGSATSQTNEQSSVWAKTGGTVESDGSTESTGRLEEKGTGESQSRDRRKIDQHTLLQSIVNRTDLDPRVLSNSGWGQTPIKQNTAWDTETSPRGERKTDNGTEAWGSSATQTFNSGACIDKTSPNGNDTSSVSGWGDPKPALRWGDSKGSNCQGGWEDDSAATGMVKSNQWGNCKEEKAAWNDSQKNKQGWGDGQKSSQGWSVSASDNWGETSRNNHWGEANKKSSSGGSDSDRSVSGWNELGKTSSFTWGNNINPNNSSGWDESSKPTPSQGWGDPPKSNQSLGWGDSSKPVSSPDWNKQQDIVGSWGIPPATGKPPGTGWLGGPIPAPAKEEEPTGWEEPSPESIRRKMEIDDGTSAWGDPSKYNYKNVNMWNKNVPNGNSRSDQQAQVHQLLTPASAISNKEASSGSGWGEPWGEPSTPATTVDNGTSAWGKPIDSGPSWGEPIAAASSTSTWGSSSVGPQALSKSGPKSMQDGWCGDDMPLPGNRPTGWEEEEDVEIGMWNSNSSQELNSSLNWPPYTKKMSSKGLSGKKRRRERGMMKGGNKQEEAWINPFVKQFSNISFSRDSPEENVQSNKMDLSGGMLQDKRMEIDKHSLNIGDYNRTVGKGPGSRPQISKESSMERNPYFDKDGIVADESQNMQFMSSQSMKLPPSNSALPNQALGSIAGLGMQNLNSVRQNGNPSMFGVGNTAAQPRGMQQPPAQPLSSSQPNLRAQVPPPLLSPQVPVSLLKYAPNNGGLNPLFGPQQVAMLNQLSQLNQLSQISQLQRLLAQQQRAQSQRSVPSGNRPQQDQQGRPLSVQQQMMQQSRQLDPNLLVKQQTPPSQQQPLHQPAMKSFLDNVMPHTTPELQKGPSPINAFSNFPIGLNSNLNVNMDMNSIKEPQSRLRKWTTVDSISVNTSLDQNSSKHGAISSGFRLEESPFVPYDFMNSSTSPAAPPGSIGDGWPRAKAPNGSSSVNWPPEFRPGEPWKGYPNIDPETDPYVTPGSVINNLSINTVREVDHLRDRNSGSSSSLNTTLPSTSAWSSIRASNYNVPLSSTAQSTSARNSDSKLTWSPGSVTNTSLAHELWKVPLPPKNITAPSRPPPGLTGQKPPLSTWDNSPLRIGGGWGNSDARYTPGSSWGESSSGRITNWLVLKNLTPQIDGSTLRTLCMQHGPLITFHLNLPHGNALVRYSSKEEVVKAQKSLHMCVLGNTTILAEFASEEEISRFFAQSQSLTPSPGWQSLGSSQSRLGSLDCSHSFSSRTDLNHWNGAGLSGTNCGDLHGTSLWGTPHYSTSLWGPPSSSDPRGISSPSPINAFLSVDHLGGGGESM
0.89 | – | FLAG-HA-SBP (FHS)-tagged full-length TNRC6A, wild type, Q8NDV7-2 S1616D; S1691D (protein) MDADSASSSESERNITIMASGNTGGEKDGLRNSTGLGSQNKFVVGSSSNNVGHGSSTGPWGFSHGAIISTCQVSVDAPESKSESSNNRMNAWGTVSSSSNGGLNPSTLNSASNHGAWPVLENNGLALKGPVGSGSSGINIQCSTIGQMPNNQSINSKVSGGSTHGTWGSLQETCESEVSGTQKVSFSGQPQNITTEMTGPNNTTNFMTSSLPNSGSVQNNELPSSNTGAWRVSTMNHPQMQAPSGMNGTSLSHLSNGESKSGGSYGTTWGAYGSNYSGDKCSGPNGQANGDTVNATLMQPGVNGPMGTNFQVNTNKGGGVWESGAANSQSTSWGSGNGANSGGSRRGWGTPAQNTGTNLPSVEWNKLPSNQHSNDSANGNGKTFTNGWKSTEEEDQGSATSQTNEQSSVWAKTGGTVESDGSTESTGRLEEKGTGESQSRDRRKIDQHTLLQSIVNRTDLDPRVLSNSGWGQTPIKQNTAWDTETSPRGERKTDNGTEAWGSSATQTFNSGACIDKTSPNGNDTSSVSGWGDPKPALRWGDSKGSNCQGGWEDDSAATGMVKSNQWGNCKEEKAAWNDSQKNKQGWGDGQKSSQGWSVSASDNWGETSRNNHWGEANKKSSSGGSDSDRSVSGWNELGKTSSFTWGNNINPNNSSGWDESSKPTPSQGWGDPPKSNQSLGWGDSSKPVSSPDWNKQQDIVGSWGIPPATGKPPGTGWLGGPIPAPAKEEEPTGWEEPSPESIRRKMEIDDGTSAWGDPSKYNYKNVNMWNKNVPNGNSRSDQQAQVHQLLTPASAISNKEASSGSGWGEPWGEPSTPATTVDNGTSAWGKPIDSGPSWGEPIAAASSTSTWGSSSVGPQALSKSGPKSMQDGWCGDDMPLPGNRPTGWEEEEDVEIGMWNSNSSQELNSSLNWPPYTKKMSSKGLSGKKRRRERGMMKGGNKQEEAWINPFVKQFSNISFSRDSPEENVQSNKMDLSGGMLQDKRMEIDKHSLNIGDYNRTVGKGPGSRPQISKESSMERNPYFDKDGIVADESQNMQFMSSQSMKLPPSNSALPNQALGSIAGLGMQNLNSVRQNGNPSMFGVGNTAAQPRGMQQPPAQPLSSSQPNLRAQVPPPLLSPQVPVSLLKYAPNNGGLNPLFGPQQVAMLNQLSQLNQLSQISQLQRLLAQQQRAQSQRSVPSGNRPQQDQQGRPLSVQQQMMQQSRQLDPNLLVKQQTPPSQQQPLHQPAMKSFLDNVMPHTTPELQKGPSPINAFSNFPIGLNSNLNVNMDMNSIKEPQSRLRKWTTVDSISVNTSLDQNSSKHGAISSGFRLEESPFVPYDFMNSSTSPASPPGSIGDGWPRAKSPNGSSSVNWPPEFRPGEPWKGYPNIDPETDPYVTPGSVINNLSINTVREVDHLRDRNSGSSSSLNTTLPSTSAWSSIRASNYNVPLSSTAQSTSARNSDSKLTWSPGSVTNTSLAHELWKVPLPPKNITAPSRPPPGLTGQKPPLSTWDNSPLRIGGGWGNSDARYTPGSSWGESSSGRITNWLVLKNLTPQIDGSTLRTLCMQHGPLITFHLNLPHGNALVRYSSKEEVVKAQKSLHMCVLGNTTILAEFASEEEISRFFAQSQSLTPDPGWQSLGSSQSRLGSLDCSHSFSSRTDLNHWNGAGLSGTNCGDLHGTSLWGTPHYSTSLWGPPSSSDPRGISSPDPINAFLSVDHLGGGGESM
– | 1.4 | FLAG-HA-SBP (FHS)-tagged TNRC6A-SD-WT, Q8NDV7-2 S1332A; S1346A (protein) PLHQPAMKSFLDNVMPHTTPELQKGPSPINAFSNFPIGLNSNLNVNMDMNSIKEPQSRLRKWTTVDSISVNTSLDQNSSKHGAISSGFRLEESPFVPYDFMNSSTSPAAPPGSIGDGWPRAKAPNGSSSVNWPPEFRPGEPWKGYPNIDPETDPYVTPGSVINNLSINTVREVDHLRDRNSGSSSSLNTTLPSTSAWSSIRASNYNVPLSSTAQSTSARNSDSKLTWSPGSVTNTSLAHELWKVPLPPKNITAPSRPPPGLTGQKPPLSTWDNSPLRIGGGWGNSDARYTPGSSWGESSSGRITNWLVLKNLTPQIDGSTLRTLCMQHGPLITFHLNLPHGNALVRYSSKEEVVKAQKSLHMCVLGNTTILAEFASEEEISRFFAQSQSLTPSPGWQSLGSSQSRLGSLDCSHSFSSRTDLNHWNGAGLSGTNCGDLHGTSLWGTPHYSTSLWGPPSSSDPRGISSPSPINAFLSVDHLGGGGESM
– | 0.54 | FLAG-HA-SBP (FHS)-tagged TNRC6A-SD-WT, Q8NDV7-2 S1616D; S1691D (protein) PLHQPAMKSFLDNVMPHTTPELQKGPSPINAFSNFPIGLNSNLNVNMDMNSIKEPQSRLRKWTTVDSISVNTSLDQNSSKHGAISSGFRLEESPFVPYDFMNSSTSPASPPGSIGDGWPRAKSPNGSSSVNWPPEFRPGEPWKGYPNIDPETDPYVTPGSVINNLSINTVREVDHLRDRNSGSSSSLNTTLPSTSAWSSIRASNYNVPLSSTAQSTSARNSDSKLTWSPGSVTNTSLAHELWKVPLPPKNITAPSRPPPGLTGQKPPLSTWDNSPLRIGGGWGNSDARYTPGSSWGESSSGRITNWLVLKNLTPQIDGSTLRTLCMQHGPLITFHLNLPHGNALVRYSSKEEVVKAQKSLHMCVLGNTTILAEFASEEEISRFFAQSQSLTPDPGWQSLGSSQSRLGSLDCSHSFSSRTDLNHWNGAGLSGTNCGDLHGTSLWGTPHYSTSLWGPPSSSDPRGISSPDPINAFLSVDHLGGGGESM
– | 1.1 | FLAG-HA-SBP (FHS)-tagged TNRC6A-SD-WT, Q8NDV7-2 S1332D; S1346D (protein) PLHQPAMKSFLDNVMPHTTPELQKGPSPINAFSNFPIGLNSNLNVNMDMNSIKEPQSRLRKWTTVDSISVNTSLDQNSSKHGAISSGFRLEESPFVPYDFMNSSTSPADPPGSIGDGWPRAKDPNGSSSVNWPPEFRPGEPWKGYPNIDPETDPYVTPGSVINNLSINTVREVDHLRDRNSGSSSSLNTTLPSTSAWSSIRASNYNVPLSSTAQSTSARNSDSKLTWSPGSVTNTSLAHELWKVPLPPKNITAPSRPPPGLTGQKPPLSTWDNSPLRIGGGWGNSDARYTPGSSWGESSSGRITNWLVLKNLTPQIDGSTLRTLCMQHGPLITFHLNLPHGNALVRYSSKEEVVKAQKSLHMCVLGNTTILAEFASEEEISRFFAQSQSLTPSPGWQSLGSSQSRLGSLDCSHSFSSRTDLNHWNGAGLSGTNCGDLHGTSLWGTPHYSTSLWGPPSSSDPRGISSPSPINAFLSVDHLGGGGESM
